Data taken from US9969998B2, “Compositions of adenosine deaminase-2 (ADA2), variants thereof and methods of using same” (Halozyme, Inc., priority 2014, dated 2018).
Each block holds one molecule with its values, some of them ahead of it.

Tests used:
[1] = Adenosine deaminase (ADA) enzymatic activity assay kit; assay type: biochemical; conditions: purified protein at 5 μg/mL
Procedure: Adenosine deaminase activity was determined using an adenosine deaminase (ADA) assay kit (Genway, San Diego, Calif.; Cat. No. BQ014EALD) with minor modifications. The ADA assay is based on the enzymatic deamination of adenosine to inosine, which is converted to hypoxanthine by purine nucleoside phosphorylase (PNP). Hypoxanthine is then converted to uric acid and hydrogen peroxide by xanthine oxidase (XOD). Hydrogen peroxide is further reacted with N-Ethyl-N-(2-hydroxy-3-sulfopropyl)-3-methylaniline (EHSPT) and 4-aminoantipyrine (4-AA) in the presence of peroxidase (POD) to generate quinone dye, which is monitored in a kinetic manner.
Briefly, 5 μL samples in duplicates (at appropriate dilutions to measure steady-state, non-saturating enzyme activity) were added to 120 μL R1 reagent (provided by the manufacturer; 50 mM Tris HCL, pH 8.0, 2 mM 4-AA, 0.1 U/mL PNP, 0.2 U/mL XOD, 0.6 U/mL peroxidase) in a 96 well plate, according to manufacturer's instructions. The mixtures were incubated at 37° C. for approximately 5 min and 60 μL of R2 reagent (provided by the manufacturer; 50 mM Tris HCl, pH 4.0, 10 mM Adenosine, 2 mM EHSPT) was added to the mixtures. Then, change in absorbance (AA) at 556 nm over time at 37° C. was measured. One unit of ADA is the amount of ADA that generates one μmole of inosine from adenosine per minute at 37° C. Adenosine deaminase activity in mU/mL was calculated using the following formula: 1 mU/mL=(ΔA/min×Tv)/(Sv×ϵ×1) • where Tv=total volume (185 μL), Sv=sample volume (5 μL), ϵ=32.2×10^−3 μM^−1 cm^−1, 1=0.5 cm.
Adenosine deaminase activity of WT rHuADA2 and variants tested above were determined using the adenosine deaminase activity (ADA) assay described in Example 4. Activity was assessed on purified rHuADA2 WT and variants that were diluted to 5 μg/mL, and then serially diluted 2 fold to generate 4 measurements.
Adenosine deaminase activity of PEGylated rHuADA2 and variants was assessed using the method described in Example 4, and compared to the activity of the corresponding non-PEGylated form.
Selected candidate variants described in Table 8 above, containing an amino acid substitution in a residue that play a role in enzymatic activity, were assessed for their adenosine deaminase activity using the method described in Example 4. To perform the experiments, purified WT rHuADA2 and tested variants were prepared at 5 μg/mL concentration to normalize the amount of protein in each experiment.

[2] = Kinetic assessment of adenosine deaminase activity (ammonia assay, Michaelis-Menten); assay type: biochemical; conditions: [E] = 8.5 nM; for kcat: kcat=Vmax/0.0085/60
Procedure: Adenosine deaminase activity was determined by the measurement of ammonia released from adenosine when broken down to inosine. Ammonia was measured using a commercially available Ammonia Assay kit (Cat. No. AA0100, Sigma-Aldrich, St. Louis, Mo.). The kit contains dry reagents containing α-ketoglutaric acid and NADPH, which were reconstituted with 5 mL water prior to use in the assay. Ammonia reacts with α-ketogluaric acid (KGA) and reduced nicotinamide adenine dinucleotide phosphate (NADPH) in the presence of L-glutamate dehydrogenase (GDH).
Kinetics parameters of rHuADA2 WT and variants were compared using this assay at different adenosine concentrations at pH 7.6 and 6.5. Adenosine concentrations ranging from 20 μM to 20 mM were used. Sub-molar concentration of adenosine stock was prepared in 1N NaOH.
For the enzymatic assays at pH 7.6, adenosine was serially diluted with 100 mM sodium acetate (NaOAc), pH 4.9. A 2× reaction mixture was prepared, containing reconstituted ammonia assay reagent (containing about 4 mM α-ketoglutarate and about 300 μM NADPH), WT rHuADA2 or variants at 1 μg/mL (17 nM) and glutamate dehydrogenase (GDH, 1:50 dilution). 85 μL of adenosine was added to 85 μL 2× mixture in duplicate in a UV-transparent half-area plate. The change in absorbance (ΔA) at 340 nm over time at room temperature was monitored.
For the enzymatic assay at pH 6.5, adenosine was serially diluted with 200 mM piperazine-N,N′-bis(2-ethanesulfonic acid) (PIPES), pH 6.5. A 2× reaction mixture in 200 mM PIPES, pH 6.5 was prepared, containing 4 mM α-ketoglutarate, 300 μM NADPH, 1 μg/mL (17 nM) rHuADA2 or variants and 50 U/mL GDH (Cat No. G2626, Sigma-Aldrich). The enzymatic reaction was initiated by adding equal volume of adenosine to the 2× mixture in a UV-transparent half-area plate as described above, and the change in absorbance (AA) at 340 nm over time at room temperature was monitored.
Adenosine deaminase activity in mU/mL (μM/min equivalent) was calculated using the following formula: 1 mU/mL=−(−ΔA/min×Tv)/(Sv×ϵ×1) • where Tv=total volume (170 μL), Sv=sample volume (85 μL), ϵ=6.22×10^−3 μM^−1 cm^−1, 1=1 cm.
The activity data were fitted with non-linear regression of Michaelis-Menten equation using Graphpad Prism software to obtain Km and Vmax. Other kinetics parameters such as kcat and kcat/Km were also determined.

- % of WT activity ([1]; compared to WT-ADA2): 114%
B1: H267Q: ADA2 variant SEQ ID NO:35 (protein)
chain: IDETRAHLLLKEKMMRLGGRLVLNTKEELANERLMTLKIAEMKEAMRTLIFPPSMHFFQAKHLIERSQVFNILRMMPKGAALHLHDIGIVTMDWLVRNVTYRPHCHICFTPRGIMQFRFAHPTPRPSEKCSKWILLEDYRKRVQNVTEFDDSLLRNFTLVTQHPEVIYTNQNVVWSKFETIFFTISGLIHYAPVFRDYVFRSMQEFYEDNVLYMEIRARLLPVYELSGEHHDEEWSVKTYQEVAQKFVETHPEFIGIKIIYSDQRSKDVAVIAESIRMAMGLRIKFPTVVAGFDLVGHEDTGHSLHDYKEALMIPAKDGVKLPYFFHAGETDWQGTSIDRNILDALMLNTTRIGHGFALSKHPAVRTYSWKKDIPIEVCPISNQVLKLVSDLRNHPVATLMATGHPMVISSDDPAMFGAKGLSYDFYEVFMGIGGMKADLRTLKQLAMNSIKYSTLLESEKNTFMEIWKKRWDKFIADVATK
modifications: human ADA2 H264Q, mature numbering
- Adenosine deaminase activity mU/ml [1]: 89.3 mU/ml
- Adenosine deaminase activity ΔA/min [1]: 38.8 ΔA/min

B2: R222Q/K374D: ADA2 combination variant SEQ ID NO:264 (protein)
chain: IDETRAHLLLKEKMMRLGGRLVLNTKEELANERLMTLKIAEMKEAMRTLIFPPSMHFFQAKHLIERSQVFNILRMMPKGAALHLHDIGIVTMDWLVRNVTYRPHCHICFTPRGIMQFRFAHPTPRPSEKCSKWILLEDYRKRVQNVTEFDDSLLRNFTLVTQHPEVIYTNQNVVWSKFETIFFTISGLIHYAPVFRDYVFRSMQEFYEDNVLYMEIRAQLLPVYELSGEHHDEEWSVKTYQEVAQKFVETHPEFIGIKIIYSDHRSKDVAVIAESIRMAMGLRIKFPTVVAGFDLVGHEDTGHSLHDYKEALMIPAKDGVKLPYFFHAGETDWQGTSIDRNILDALMLNTTRIGHGFALSKHPAVRTYSWDKDIPIEVCPISNQVLKLVSDLRNHPVATLMATGHPMVISSDDPAMFGAKGLSYDFYEVFMGIGGMKADLRTLKQLAMNSIKYSTLLESEKNTFMEIWKKRWDKFIADVATK
modifications: human ADA2 R219Q/K371D, mature numbering
- Km ([2]; pH 6.5): 0.79 mM
- Vmax ([2]; pH 6.5): 60.87 µM/min
- kcat ([2]; pH 6.5): 119.35 s⁻¹
- Km ([2]; pH 7.6): 1.71 mM
- Vmax ([2]; pH 7.6): 77.01 µM/min
- kcat ([2]; pH 7.6): 151.00 s⁻¹

B3: R222Q/K374E/R23E: ADA2 combination variant SEQ ID NO:266 (protein)
chain: IDETRAHLLLKEKMMRLGGELVLNTKEELANERLMTLKIAEMKEAMRTLIFPPSMHFFQAKHLIERSQVFNILRMMPKGAALHLHDIGIVTMDWLVRNVTYRPHCHICFTPRGIMQFRFAHPTPRPSEKCSKWILLEDYRKRVQNVTEFDDSLLRNFTLVTQHPEVIYTNQNVVWSKFETIFFTISGLIHYAPVFRDYVFRSMQEFYEDNVLYMEIRAQLLPVYELSGEHHDEEWSVKTYQEVAQKFVETHPEFIGIKIIYSDHRSKDVAVIAESIRMAMGLRIKFPTVVAGFDLVGHEDTGHSLHDYKEALMIPAKDGVKLPYFFHAGETDWQGTSIDRNILDALMLNTTRIGHGFALSKHPAVRTYSWEKDIPIEVCPISNQVLKLVSDLRNHPVATLMATGHPMVISSDDPAMFGAKGLSYDFYEVFMGIGGMKADLRTLKQLAMNSIKYSTLLESEKNTFMEIWKKRWDKFIADVATK
modifications: human ADA2 R219Q/K371E/R20E, mature numbering
- Km ([2]; pH 6.5): 0.86 mM
- Vmax ([2]; pH 6.5): 54.48 µM/min
- kcat ([2]; pH 6.5): 106.82 s⁻¹
- Km ([2]; pH 7.6): 1.92 mM
- Vmax ([2]; pH 7.6): 78.42 µM/min
- kcat ([2]; pH 7.6): 153.76 s⁻¹

B4: R222Q/R23E: ADA2 combination variant SEQ ID NO:265 (protein)
chain: IDETRAHLLLKEKMMRLGGELVLNTKEELANERLMTLKIAEMKEAMRTLIFPPSMHFFQAKHLIERSQVFNILRMMPKGAALHLHDIGIVTMDWLVRNVTYRPHCHICFTPRGIMQFRFAHPTPRPSEKCSKWILLEDYRKRVQNVTEFDDSLLRNFTLVTQHPEVIYTNQNVVWSKFETIFFTISGLIHYAPVFRDYVFRSMQEFYEDNVLYMEIRAQLLPVYELSGEHHDEEWSVKTYQEVAQKFVETHPEFIGIKIIYSDHRSKDVAVIAESIRMAMGLRIKFPTVVAGFDLVGHEDTGHSLHDYKEALMIPAKDGVKLPYFFHAGETDWQGTSIDRNILDALMLNTTRIGHGFALSKHPAVRTYSWKKDIPIEVCPISNQVLKLVSDLRNHPVATLMATGHPMVISSDDPAMFGAKGLSYDFYEVFMGIGGMKADLRTLKQLAMNSIKYSTLLESEKNTFMEIWKKRWDKFIADVATK
modifications: human ADA2 R219Q/R20E, mature numbering
- Km ([2]; pH 6.5): 0.84 mM
- Vmax ([2]; pH 6.5): 60.47 µM/min
- kcat ([2]; pH 6.5): 118.57 s⁻¹
- Km ([2]; pH 7.6): 1.46 mM
- Vmax ([2]; pH 7.6): 84.71 µM/min
- kcat ([2]; pH 7.6): 166.10 s⁻¹

B5: R222Q/K374E: ADA2 combination variant SEQ ID NO:263 (protein)
chain: IDETRAHLLLKEKMMRLGGRLVLNTKEELANERLMTLKIAEMKEAMRTLIFPPSMHFFQAKHLIERSQVFNILRMMPKGAALHLHDIGIVTMDWLVRNVTYRPHCHICFTPRGIMQFRFAHPTPRPSEKCSKWILLEDYRKRVQNVTEFDDSLLRNFTLVTQHPEVIYTNQNVVWSKFETIFFTISGLIHYAPVFRDYVFRSMQEFYEDNVLYMEIRAQLLPVYELSGEHHDEEWSVKTYQEVAQKFVETHPEFIGIKIIYSDHRSKDVAVIAESIRMAMGLRIKFPTVVAGFDLVGHEDTGHSLHDYKEALMIPAKDGVKLPYFFHAGETDWQGTSIDRNILDALMLNTTRIGHGFALSKHPAVRTYSWEKDIPIEVCPISNQVLKLVSDLRNHPVATLMATGHPMVISSDDPAMFGAKGLSYDFYEVFMGIGGMKADLRTLKQLAMNSIKYSTLLESEKNTFMEIWKKRWDKFIADVATK
modifications: human ADA2 R219Q/K371E, mature numbering
- Km ([2]; pH 6.5): 0.99 mM
- Vmax ([2]; pH 6.5): 58.56 µM/min
- kcat ([2]; pH 6.5): 114.82 s⁻¹
- Km ([2]; pH 7.6): 1.58 mM
- Vmax ([2]; pH 7.6): 87.27 µM/min
- kcat ([2]; pH 7.6): 171.12 s⁻¹
